Test results published in the supplement of paper PMC10126150.
± gives the standard deviation of the averaged measurements.

Test system: ATP
Assay: switch fluorescence ratio, 500 uM ATP over buffer (Cy3 cluster intensity, sum of 5 cycles each) (fold (ratio)); higher = stronger signal-on switching upon ATP binding; sequences stand for … in TCGTCGGCAGCGTCAGATGTGTATAAGAGACAGTTTTTTTTTTTTTTTTTTTTTTTTT…TC
Settings: aptamer strand: ATP DNA aptamer (quencher-CACCTGGGGGAGTATTGCGGAGGAAGG + anchor), 100 nM annealed; ATP concentration: 500 uM
Outline: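 Exposure to 500 uM ATP lasted 15 min at 22 °C before imaging, and a selection-buffer image was taken beforehand, for Cy3-labelled switching-strand clusters on a modified Illumina MiSeq flow-cell annealed to 100 nM quencher-labelled ATP aptamer. Five buffer/ATP cycles were run with NaOH stripping and re-annealing between them. The fluorescence ratio per cluster is summed target-cycle over summed buffer-cycle Cy3 intensity, averaged per switch-domain sequence. Clusters outside 100-1000 RFU were excluded.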

| Sequence | switch fluorescence ratio |
| --- | --- |
| ATGCCAGCGC | 1.02 ± 0.025 |
| ATGCCGATCG | 1.05 ± 0.021 |
| ATGCCGGGAT | 1.02 ± 0.02 |
| ATGCCGGGGC | 1.02 ± 0.037 |
| ATGCCTGTGT | 0.977 ± 0.012 |
| ATGCGAAGAT | 1.01 ± 0.011 |
| ATGCGCAAGG | 1.25 ± 0.033 |
| ATGCGCAGAA | 1.01 ± 0.034 |
| ATGCGCGCCG | 0.982 ± 0.037 |
| ATGCGGCTG | 1.04 ± 0.11 |
| ATGCGGTAGG | 1.01 ± 0.016 |
| ATGCGTGGTA | 1.02 ± 0.041 |
| ATGCGTTTTG | 1.01 ± 0.017 |
| ATGCTAAGCT | 1.013 ± 0.0096 |
| ATGCTAATTT | 0.9666 ± 0.0015 |
| ATGCTACCAT | 1.05 ± 0.022 |
| ATGCTATGTG | 0.9752 ± 0.0055 |
| ATGCTTCGTG | 0.975 ± 0.027 |
| ATGCTTTTTT | 0.994 ± 0.017 |
| ATGGAAAGGT | 1.009 ± 0.0074 |
| ATGGAAAGTG | 0.9599 ± 0.0071 |
| ATGGAAGCTA | 1.02 ± 0.013 |
| ATGGAAGGCG | 1.01 ± 0.036 |
| ATGGAATGAG | 0.998 ± 0.012 |
| ATGGAGGGTG | 1.04 ± 0.031 |
| ATGGAGTGG | 1 ± 0.049 |

| Sequence | switch fluorescence ratio |
| --- | --- |
| ATGGATAAGG | 1.01 ± 0.024 |
| ATGGATATTA | 1.03 ± 0.046 |
| ATGGATGAGA | 0.989 ± 0.03 |
| ATGGATGGAG | 0.99 ± 0.013 |
| ATGGCAATTC | 2.51 ± 0.068 |
| ATGGCAGGG | 1.016 ± 0.0061 |
| ATGGCCTCGG | 1.02 ± 0.025 |
| ATGGCGAATT | 0.995 ± 0.073 |
| ATGGCGGGGA | 0.984 ± 0.052 |
| ATGGCTAGAA | 0.985 ± 0.026 |
| ATGGCTATTT | 0.9852 ± 0.0086 |
| ATGGCTGGCT | 1.04 ± 0.041 |
| ATGGCTGTTT | 0.972 ± 0.0012 |
| ATGGCTTAAG | 1.006 ± 0.0055 |
| ATGGGAAGGG | 1.01 ± 0.015 |
| ATGGGAGGTC | 0.97 ± 0.0071 |
| ATGGGATAAG | 0.998 ± 0.029 |
| ATGGGCGCAG | 0.99 ± 0.05 |
| ATGGGCGCGG | 0.9903 ± 0.0066 |
| ATGGGCGGCG | 0.993 ± 0.021 |
| ATGGGCTAGG | 0.9702 ± 0.0058 |
| ATGGGCTATT | 0.994 ± 0.038 |
| ATGGGGAAGC | 1.03 ± 0.058 |
| ATGGGGAGGT | 0.968 ± 0.025 |
| ATGGGGATTG | 0.983 ± 0.048 |
| ATGGGGCGTG | 0.974 ± 0.016 |

| Sequence | switch fluorescence ratio |
| --- | --- |
| ATGGGGGATG | 0.973 ± 0.028 |
| ATGGGGGATT | 1 ± 0.025 |
| ATGGGGGCAG | 1.03 ± 0.027 |
| ATGGGGGCGA | 0.978 ± 0.014 |
| ATGGGGGCGG | 1 ± 0.021 |
| ATGGGGGGGG | 1.01 ± 0.039 |
| ATGGGGGGTG | 1 ± 0.035 |
| ATGGGGGTA | 1.004 ± 0.002 |
| ATGGGGGTGG | 0.99 ± 0.0087 |
| ATGGGGTAGG | 0.995 ± 0.022 |
| ATGGGGTATG | 0.987 ± 0.024 |
| ATGGGGTATT | 0.989 ± 0.015 |
| ATGGGGTTGT | 0.966 ± 0.019 |
| ATGGGTATTT | 1.02 ± 0.035 |
| ATGGGTCTTT | 0.9811 ± 0.0016 |
| ATGGGTGCTT | 1.01 ± 0.039 |
| ATGGGTGGGT | 0.994 ± 0.034 |
| ATGGGTTATG | 0.999 ± 0.016 |
| ATGGGTTATT | 0.98 ± 0.045 |
| ATGGGTTGGA | 1.008 ± 0.0088 |
| ATGGGTTGGT | 0.981 ± 0.016 |
| ATGGGTTTGT | 1.02 ± 0.021 |
| ATGGTAGATA | 1.02 ± 0.0041 |
| ATGGTAGG | 0.9749 ± 0.0017 |
| ATGGTAGGCT | 0.98 ± 0.032 |
| ATGGTAGTTG | 0.985 ± 0.018 |

| Sequence | switch fluorescence ratio |
| --- | --- |
| ATGGTATCGT | 0.986 ± 0.018 |
| ATGGTCTCTT | 0.987 ± 0.013 |
| ATGGTCTGTT | 1 ± 0.036 |
| ATGGTGAGTT | 1 ± 0.015 |
| ATGGTGGATG | 0.9626 ± 0.0052 |
| ATGGTGGGTG | 1.03 ± 0.046 |
| ATGGTGTAGC | 0.986 ± 0.016 |
| ATGGTTAACT | 1.03 ± 0.016 |
| ATGGTTAAGG | 0.9812 ± 0.0085 |
| ATGGTTGGGA | 0.998 ± 0.024 |
| ATGGTTGTTG | 0.9628 ± 0.0034 |
| ATGGTTGTTT | 0.995 ± 0.02 |
| ATGGTTTAGA | 1.03 ± 0.031 |
| ATGGTTTGGC | 1 ± 0.049 |
| ATGTAACGTT | 1.006 ± 0.0088 |
| ATGTAAGCCC | 0.992 ± 0.022 |
| ATGTAAGGGG | 0.9951 ± 0.0039 |
| ATGTAATAA | 1.022 ± 0.0049 |
| ATGTAATAAT | 0.983 ± 0.027 |
| ATGTACAATT | 1.0917 ± 0.00014 |
| ATGTACAGGA | 1.05 ± 0.056 |
| ATGTACGGAT | 1.02 ± 0.059 |
| ATGTACGGGG | 1.04 ± 0.028 |
| ATGTACTACT | 1.07 ± 0.068 |
| ATGTACTCGC | 1.08 ± 0.031 |
| ATGTAGAGAT | 0.97 ± 0.016 |

| Sequence | switch fluorescence ratio |
| --- | --- |
| ATGTAGAGG | 0.988 ± 0.013 |
| ATGTAGAGGG | 1.01 ± 0.02 |
| ATGTAGGCCA | 1.04 ± 0.053 |
| ATGTAGTCGG | 0.978 ± 0.012 |
| ATGTATAGGG | 1 ± 0.0019 |
| ATGTATTATG | 0.956 ± 0.026 |
| ATGTATTGCG | 0.988 ± 0.044 |
| ATGTCATATG | 0.994 ± 0.031 |
| ATGTCCATTA | 0.994 ± 0.01 |
| ATGTCCGTGG | 0.99 ± 0.014 |
| ATGTCGAGGT | 1.01 ± 0.035 |
| ATGTCGATGG | 0.9908 ± 0.0065 |
| ATGTCGGATT | 1.002 ± 0.0021 |
| ATGTCGGGCT | 0.982 ± 0.042 |
| ATGTCTAAAA | 0.9887 ± 0.0065 |
| ATGTCTTTTG | 1.03 ± 0.022 |
| ATGTGACAGC | 0.955 ± 0.062 |
| ATGTGAGATA | 1.02 ± 0.015 |
| ATGTGATTGG | 1.01 ± 0.027 |
| ATGTGCAGGC | 0.969 ± 0.026 |
| ATGTGGATTG | 1.016 ± 0.009 |
| ATGTGGCCTG | 0.988 ± 0.056 |
| ATGTGGGGGC | 0.994 ± 0.03 |
| ATGTGGGGTG | 1.06 ± 0.053 |
| ATGTGGGTTA | 1.01 ± 0.022 |
| ATGTGGTAGC | 0.9523 ± 0.004 |

| Sequence | switch fluorescence ratio |
| --- | --- |
| ATGTGGTCTG | 0.9777 ± 0.0014 |
| ATGTGGTGTC | 1.02 ± 0.015 |
| ATGTGTAGTT | 0.992 ± 0.019 |
| ATGTGTCCT | 1.016 ± 0.0039 |
| ATGTGTCGTC | 1.01 ± 0.057 |
| ATGTGTCTGC | 1.04 ± 0.035 |
| ATGTGTCTGG | 0.998 ± 0.011 |
| ATGTGTGGT | 0.959 ± 0.023 |
| ATGTGTGGTT | 1.12 ± 0.15 |
| ATGTGTTCTG | 0.931 ± 0.031 |
| ATGTGTTGGG | 0.973 ± 0.032 |
| ATGTTAAATG | 1 ± 0.016 |
| ATGTTAAATT | 0.976 ± 0.014 |
| ATGTTAAGGA | 0.998 ± 0.012 |
| ATGTTAGACT | 1.021 ± 0.0071 |
| ATGTTAGGGA | 1.034 ± 0.0052 |
| ATGTTAGGGC | 0.975 ± 0.032 |
| ATGTTAGTGA | 0.979 ± 0.042 |
| ATGTTATATG | 1.004 ± 0.0036 |
| ATGTTCAAAG | 0.975 ± 0.017 |
| ATGTTCAAGA | 1.01 ± 0.015 |
| ATGTTCAGTG | 0.985 ± 0.03 |
| ATGTTCGGCC | 1.012 ± 0.01 |
